In the assay the target is HA-T-AGM protein (recombinant soluble trimeric hemagglutinin of Influenza A/Guangdong-Maonan/SWL1536/2019 (H1N1) pdm09-like virus) (Influenza A/Guangdong-Maonan/SWL1536/2019 (H1N1) | not stated). Nature of the assay: SEC. (In gel filtration, larger molecules generally elute earlier.)

Broadly, the stoichiometry N is the number of molecules, sites or subunits per partner or assembly. Regarding “HA-T-AGM protein (recombinant soluble trimeric hemagglutinin of Influenza A/Guangdong-Maonan/SWL1536/2019 (H1N1) pdm09-like virus)”, the stoichiometry N came to 3.

For the origin of these results see PMC10141624.
